In paper PMC4705477, “Biochemical Characterization of Nonamer Binding Domain of RAG1 Reveals its Thymine Preference with Respect to Length and Position”:

Columns and labels:
[1] = molecular target: T1, NBD (nonamer binding domain of RAG1) (mouse, UniProt P15919 384-461); assay: EMSA; 5 mM Ca2+; NBD EMSA: 10 mM Tris-HCl pH 7.5, 33 mM KCl, 5 mM CaCl2, 2 mM DTT, 0.1 mg/ml BSA, 6% glycerol, 15 min 30 C; cRAG EMSA: 22.5 mM MOPS-KOH pH 7.0, 20% DMSO, 2.2 mM; details: protein: recombinant, tags: N-terminal His6 (pET28a)
T1 sequence: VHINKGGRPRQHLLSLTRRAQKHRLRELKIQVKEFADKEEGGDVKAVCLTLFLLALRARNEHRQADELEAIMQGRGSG

[2] = molecular target: T2, MBP-cRAG1 (core RAG1);cRAG2 (core RAG2) (mouse?;mouse?, UniProt P15919;P21784 384-1040;1-383, |); assay: EMSA; cRAG buffer; NBD EMSA: 10 mM Tris-HCl pH 7.5, 33 mM KCl, 5 mM CaCl2, 2 mM DTT, 0.1 mg/ml BSA, 6% glycerol, 15 min 30 C; cRAG EMSA: 22.5 mM MOPS-KOH pH 7.0, 20% DMSO, 2.2 mM; details: protein: recombinant;recombinant, tags: MBP;MBP, chain copies: 2;2
T2 sequence 1: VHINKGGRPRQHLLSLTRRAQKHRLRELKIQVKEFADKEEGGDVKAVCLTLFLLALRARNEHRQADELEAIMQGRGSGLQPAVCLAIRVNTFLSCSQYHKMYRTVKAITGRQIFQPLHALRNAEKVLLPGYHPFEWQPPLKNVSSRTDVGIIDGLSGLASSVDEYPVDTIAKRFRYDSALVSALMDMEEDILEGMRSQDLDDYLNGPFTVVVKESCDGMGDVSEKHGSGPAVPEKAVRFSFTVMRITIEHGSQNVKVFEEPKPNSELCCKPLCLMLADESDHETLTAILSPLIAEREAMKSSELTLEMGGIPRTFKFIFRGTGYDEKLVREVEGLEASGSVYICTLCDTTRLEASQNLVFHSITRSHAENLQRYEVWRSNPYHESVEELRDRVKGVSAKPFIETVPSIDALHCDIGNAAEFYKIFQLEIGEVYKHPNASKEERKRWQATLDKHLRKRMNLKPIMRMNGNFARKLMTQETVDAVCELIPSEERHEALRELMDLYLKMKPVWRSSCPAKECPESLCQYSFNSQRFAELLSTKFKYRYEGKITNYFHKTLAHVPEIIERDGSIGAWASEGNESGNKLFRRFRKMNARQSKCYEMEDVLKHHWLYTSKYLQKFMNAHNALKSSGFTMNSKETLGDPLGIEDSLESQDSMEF
T2 sequence 2: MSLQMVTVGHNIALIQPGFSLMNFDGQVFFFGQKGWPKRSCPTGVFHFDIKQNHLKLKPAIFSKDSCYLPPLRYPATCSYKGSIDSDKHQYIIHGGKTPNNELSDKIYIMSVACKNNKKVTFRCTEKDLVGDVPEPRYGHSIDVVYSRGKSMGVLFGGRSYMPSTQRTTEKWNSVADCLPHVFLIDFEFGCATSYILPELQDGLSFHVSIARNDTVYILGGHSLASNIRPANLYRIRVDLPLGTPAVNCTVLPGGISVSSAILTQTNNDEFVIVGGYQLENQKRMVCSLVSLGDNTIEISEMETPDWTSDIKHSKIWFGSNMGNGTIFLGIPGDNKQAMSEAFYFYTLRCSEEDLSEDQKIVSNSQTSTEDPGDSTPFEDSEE

[3] = molecular target: T1, NBD (nonamer binding domain of RAG1); assay: EMSA; 5 mM Ca2+; no significant binding; NBD EMSA: 10 mM Tris-HCl pH 7.5, 33 mM KCl, 5 mM CaCl2, 2 mM DTT, 0.1 mg/ml BSA, 6% glycerol, 15 min 30 C; cRAG EMSA: 22.5 mM MOPS-KOH pH 7.0, 20% DMSO, 2.2 mM; details: protein: recombinant; tags: N-terminal His6 (pET28a); label: 5' 32P on DR59; 6 nt T/T bubble, blunt ends
[4] = molecular target: T1, NBD (nonamer binding domain of RAG1); assay: BLI; 1x PBS, 30 C, 1:1 fit; NBD EMSA: 10 mM Tris-HCl pH 7.5, 33 mM KCl, 5 mM CaCl2, 2 mM DTT, 0.1 mg/ml BSA, 6% glycerol, 15 min 30 C; cRAG EMSA: 22.5 mM MOPS-KOH pH 7.0, 20% DMSO, 2.2 mM; details: protein: recombinant; tags: N-terminal His6 (pET28a); label: 5' biotin
[5] = label: 5' 32P on AKN1, 5' overhang 1 nt at both ends
[6] = label: 5' 32P on NM32, 6 nt T/T bubble, blunt ends
[7] = label: 5' 32P, 6 nt C/C bubble, blunt ends
[8] = label: 5' 32P, 6 nt G/G bubble, blunt ends, intermolecular G4 in K+ buffer
[9] = label: 5' 32P, 6 nt A/A bubble, blunt ends
[10] = label: 5' 32P, 6 nt T/T bubble, blunt ends

B1: A/T 10 bp (MS103/DR38) (dsDNA)
DNA 1: TTTTTTTTTT
DNA 2: AAAAAAAAAA
- binding result ([1]; label: 5' 32P, blunt): no binding

Binder: TTTTTTTTTT (ssDNA) [poly T 10 (MS103)]
- binding result ([1]; label: 5' 32P): no binding

B2: 12RSS (I, AKN1/AKN2) (dsDNA)
DNA 1: GATCAGCTGATAGCTACCACAGTGCTACAGACTGGAACAAAAACCCTGCT
DNA 2: TAGCAGGGTTTTTGTTCCAGTCTGTAGCACTGTGGTAGCTATCAGCTGAT
- binding result [1, 5]: binds
- binding result [2, 5]: binds

Binder: TTTTTTTTTTGAGTCGGATCTTACGTCGTAACTTCGCTAC (ssDNA) [XXXI, 10 T at 5' end (MS22)]
- binding result ([1]; label: 5' 32P): binds

B3: A/T 28 bp (MS101/DR41) (dsDNA)
DNA 1: TTTTTTTTTTTTTTTTTTTTTTTTTTTT
DNA 2: AAAAAAAAAAAAAAAAAAAAAAAAAAAA
- binding result ([1]; label: 5' 32P, blunt): binds

B4: T/T bubble with scrambled nonamer (XXXVII, DR59/DR60) (dsDNA)
DNA 1: GACCTGAGGGCGAGCTTTTTTCGAGTAACTTAAGCGGAGGTCCTGCT
DNA 2: AGCAGGACCTCCGCTTAAGTTACTCGTTTTTTGCTCGCCCTCAGGTC
- binding result [3]: no binding

B5: T/T bubble with nonamer (VII, NM32/NM33) (dsDNA)
DNA 1: GACCTGAGGGCGAGCTTTTTTCGAGTAACTTAAACAAAAACCCTGCT
DNA 2: AGCAGGGTTTTTGTTTAAGTTACTCGTTTTTTGCTCGCCCTCAGGTC
- binding result [1, 6]: binds
- binding result [2, 6]: binds

B6: C/C bubble heteroduplex (AKN46/AKN20) (dsDNA)
DNA 1: GACCTGAGGGCGAGCCCCCCCCGAGTAACTTAACAG
DNA 2: CTGTTAAGTTACTCGCCCCCCGCTCGCCCTCAGGTC
- binding result [1, 7]: no binding
- binding result [2, 7]: binds

B7: G/G bubble heteroduplex (V, AKN47/AKN48) (dsDNA)
DNA 1: GACCTGAGGGCGAGCGGGGGGCGAGTAACTTAACAG
DNA 2: CTGTTAAGTTACTCGGGGGGGGCTCGCCCTCAGGTC
- binding result [1, 8]: no binding
- binding result [2, 8]: no binding

B8: A/T 16 bp (MS102/DR39) (dsDNA)
DNA 1: TTTTTTTTTTTTTTTT
DNA 2: AAAAAAAAAAAAAAAA
- binding result ([1]; label: 5' 32P, blunt): no binding

Binder: GAGTCTGATCTTACCTCTTATTTTTTTTTTTTTTT (ssDNA) [XXIX, 15 T at 3' end (MS16)]
- binding result ([1]; label: 5' 32P): binds

Binder: GAGTCTGATCTTACCTTTTTTTTTTTTTTTTTTTT (ssDNA) [XXX, 20 T at 3' end (MS18)]
- binding result ([1]; label: 5' 32P): binds

Binder: CTGTTAAGTTACTCGAAAAAAGCTCGCCCTCAGGTC (ssDNA) [XXXIII, ssDNA lacking T stretch]
- binding result ([1]; label: 5' 32P): no binding

B9: A/A bubble heteroduplex (AKN18/AKN45) (dsDNA)
DNA 1: CTGTTAAGTTACTCGAAAAAAGCTCGCCCTCAGGTC
DNA 2: GACCTGAGGGCGAGCAAAAAACGAGTAACTTAACAG
- binding result [1, 9]: no binding
- binding result [2, 9]: no binding

B10: T/T bubble heteroduplex (AKN11/SCR252) (dsDNA)
DNA 1: GACCTGAGGGCGAGCTTTTTTCGAGTAACTTAACAG
DNA 2: CTGTTAAGTTACTCGTTTTTTGCTCGCCCTCAGGTC
- binding result [1, 10]: no binding
- binding result [2, 10]: binds

B11: poly T 75 (MS6) (ssDNA)
DNA: TTTTTTTTTTTTTTTTTTTTTTTTTTTTTTTTTTTTTTTTTTTTTTTTTTTTTTTTTTTTTTTTTTTTTTTTTT
- binding result ([1]; label: 5' 32P): binds

B12: A/T 22 bp (MS100/DR40) (dsDNA)
DNA 1: TTTTTTTTTTTTTTTTTTTTTT
DNA 2: AAAAAAAAAAAAAAAAAAAAAA
- binding result ([1]; label: 5' 32P, blunt): no binding

B13: random dsDNA MN37/MN38 (XV or XVI) (dsDNA)
DNA 1: CCTCTCCCCCTCCCCTCCCCTCCCTCGCGC
DNA 2: GCGCGAGGGAGGGGAGGGGAGGGGGAGAGG
- binding result ([1]; label: 5' 32P on MN37, blunt): no binding

Binder: TTTTTTTTTTTTTTTTTTTTTTTTTTTTTTTTTTT (ssDNA) [biotinylated poly T 35]
- Kd [4]: 450 nM

Binder: TTTTTTTTTTTTTTTTTTTTTTTTTTTTTTTTTTT (ssDNA) [ss poly T 35 (MS3)]
- binding result ([2]; label: 5' 32P): no binding

Binder: GAGTCTGATCTTACCTCTTAACTTCGCTACTTTTT (ssDNA) [XXVII, 5 T at 3' end (MS12)]
- binding result ([1]; label: 5' 32P): binds

Binder: GAGTCTGATCTTACCTCTTAACTTCTTTTTTTTTT (ssDNA) [XXVIII, 10 T at 3' end (MS14)]
- binding result ([1]; label: 5' 32P): binds

Binder: TTTTTTTTTTTTTTTTTTTTTTTTTTTT (ssDNA) [poly T 28 (MS101)]
- binding result ([1]; label: 5' 32P): binds

B14: random dsDNA MN45/MN46 (XV or XVI) (dsDNA)
DNA 1: AGAAGGGGGAGGGGAGGGAGAGAGGGGGCGCCG
DNA 2: CGGCGCCCCCTCTCTCCCTCCCCTCCCCCTTCT
- binding result ([1]; label: 5' 32P on MN45, blunt): no binding

Binder: TTTTTTTTTTTTTTTTTTTTTT (ssDNA) [poly T 22 (MS100)]
- binding result ([1]; label: 5' 32P): no binding

Binder: TTTTTTTTTTTTTTTT (ssDNA) [poly T 16 (MS102)]
- binding result ([1]; label: 5' 32P): no binding
